Target: mouse LAG3 on Pmel-1 or Pmel-1xLy108 KO splenocytes (mouse) (UniProt Q61790)
Assay: cell-based or functional assay

Sequence of UniProt Q61790 (Q61790 24-521): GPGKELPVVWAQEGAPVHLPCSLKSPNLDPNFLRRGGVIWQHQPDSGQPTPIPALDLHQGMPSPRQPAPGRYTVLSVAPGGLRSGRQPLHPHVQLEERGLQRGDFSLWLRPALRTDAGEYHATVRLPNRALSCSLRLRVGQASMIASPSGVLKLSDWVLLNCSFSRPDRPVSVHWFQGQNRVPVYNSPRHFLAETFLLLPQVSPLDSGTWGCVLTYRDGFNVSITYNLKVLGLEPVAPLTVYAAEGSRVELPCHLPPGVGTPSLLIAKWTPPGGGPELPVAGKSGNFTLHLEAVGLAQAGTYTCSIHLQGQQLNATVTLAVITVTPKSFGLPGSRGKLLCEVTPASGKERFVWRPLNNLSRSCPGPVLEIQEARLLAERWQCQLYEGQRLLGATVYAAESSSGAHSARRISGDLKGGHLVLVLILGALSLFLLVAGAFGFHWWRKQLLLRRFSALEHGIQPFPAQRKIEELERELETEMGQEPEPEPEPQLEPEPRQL

IFN-γ production (ELISA), Pmel-1×Ly108 KO cells with anti-LAG3 compared to Ly108-expressing cells: 3 fold
IFN-γ secretion (ELISA) of Pmel-1 splenocytes activated with anti Lag3 (10 µg/ml), compared to no treatment: 1.5 fold
Substance: anti-LAG3 blocking antibody (BioXCell, clone: C9B7W, cat: BE0174)
